Experimental data reported in patent CN107793480A (SHANGHAI JIBEI BIOLOGICAL TECH CO LTD, dated 2018).

T1: CD19-His (human, UniProt P15391 20-291)
T1 construct: Amine-coupled to AR2G biosensors for BLI; also called CD19-His抗原; not shown: His tag
T1 sequence (looked up): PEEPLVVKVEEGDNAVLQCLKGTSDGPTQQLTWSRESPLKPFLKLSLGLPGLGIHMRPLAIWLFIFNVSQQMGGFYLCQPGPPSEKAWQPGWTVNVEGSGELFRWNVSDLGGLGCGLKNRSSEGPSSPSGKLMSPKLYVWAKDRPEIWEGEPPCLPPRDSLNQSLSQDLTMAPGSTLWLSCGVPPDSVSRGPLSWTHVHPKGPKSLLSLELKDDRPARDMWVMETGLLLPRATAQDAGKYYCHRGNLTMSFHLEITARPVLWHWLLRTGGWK

T2: CD19 on Raji cells (human, UniProt P15391 20-556)
T2 construct: whole, on cells; also called Raji细胞(CD19+)
T2 sequence (looked up): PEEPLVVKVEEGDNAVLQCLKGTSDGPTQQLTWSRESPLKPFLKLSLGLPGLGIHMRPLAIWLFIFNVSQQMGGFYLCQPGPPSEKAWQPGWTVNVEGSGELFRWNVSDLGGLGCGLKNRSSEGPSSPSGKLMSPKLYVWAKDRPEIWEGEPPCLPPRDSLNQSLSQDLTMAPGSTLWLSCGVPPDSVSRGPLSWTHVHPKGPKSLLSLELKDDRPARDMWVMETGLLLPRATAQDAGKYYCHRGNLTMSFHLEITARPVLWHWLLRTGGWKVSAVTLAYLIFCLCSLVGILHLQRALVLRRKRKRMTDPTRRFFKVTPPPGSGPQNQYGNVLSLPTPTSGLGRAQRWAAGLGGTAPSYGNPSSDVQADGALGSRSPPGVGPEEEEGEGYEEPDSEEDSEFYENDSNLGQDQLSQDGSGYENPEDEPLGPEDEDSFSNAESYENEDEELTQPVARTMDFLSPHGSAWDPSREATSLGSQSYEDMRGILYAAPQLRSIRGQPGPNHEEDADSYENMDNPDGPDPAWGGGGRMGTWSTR


Assays:
CD19-His = molecular target: T1, CD19-His; test: BLI (ForteBio Octet), CD19-His amine-coupled to AR2G sensor, scFv-hIgG1 in solution
[1] = molecular target: CD19 (antigen of the phage competition ELISA) (human) (UniProt P15391); test: phage competition ELISA on CD19; competitor 3ug/ml FMC63mIgG2a, anti-mouse Fc detection
CD19 on Raji cells [2] = molecular target: T2, CD19 on Raji cells; test: flow cytometry on Raji cells, scFv-hIgG1, all four in one experiment
CD19 on Raji cells [3] = molecular target: T2, CD19 on Raji cells; test: flow cytometry on Raji cells, anti-human IgG Fc-PE, MFI against concentration

Molecule	Response (CD19-His)	EC50 (CD19 on Raji cells [2])	EC50 (CD19 on Raji cells [3])	also measured
NC (negative control in the scFv-hIgG1 BLI table)	0.09			
NC (negative control in the phage ELISAs)				Emax(最大抑制率) [1]: 19%
7E11-hIgG1 (Fc fusion, not shown: human IgG1 Fc (hIgG1Fc) from vector pGCIgGH1) EIVMTQSPATLSLSPGERATLSCRASQDISKYLNWYQQKPGQAPRLLIYHTSRLHSGIPARFSGSGSGTDYTLTISSLQPEDFAVYFCQQGKTFPLTFGQGTKLEIKGGGGSGGGGSGGGGSQVQLQESGPGLVKPSETLSLTCTVSGFSLEDYGVSWIRQPPGKGLEWIGVIWGSETTYYNSSLKSRVTISKDNSKNQVSLKLSSVTAADTAVYYCAKHYYYGGSYAMDYWGQGTLVTVSS		0.36 µg/mL		
C2146-hIgG1 (Fc fusion, also called C2146 scFv-hIgG1; not shown: human IgG1 Fc (hIgG1Fc) from vector pGCIgGH1) EIVMTQSPATLSLSPGERATLSCRASQDISKYLNWYQQKPGQAPRLLIYHTSRLHSGIPARFSGSGSGTDYTLTISSLQPEDFAVYFCQQGNTLPYTFGQGTKLEIKGGGGSGGGGSGGGGSQVQLQESGPGLVKPSETLSLTCTVSGVSLPDYGVSWIRQPPGKGLEWIGVIWGSETTYYNSSLKSRVTISKDNSKNQVSLKLSSVTAADTAVYYCAKHYYYGGSYAMDYWGQGTLVTVSS		2.63 µg/mL		
4B10-hIgG1 (Fc fusion, Secreted scFv-hIgG1Fc fusion from 293 cells, protein A purified; Junction between scFv and Fc not described; also called 4B10 scFv-hIgG1Fc融合蛋白; not shown: human IgG1 Fc (hIgG1Fc) from vector pGCIgGH1) EVKLQESGPGLVAPSQSLSVTCTVSGFSLEDYGVSWIRQPPRKGLEWLGVIWGSETTYYNSALKSRLTIIKDNSKSQVFLKMNSLQTDDTAIYYCAKHYYYGGSYAMDYWGQGTSVTVSSGGGGSGGGGSGGGGSDIQMTQTTSSLSASLGDRVTISCRASQDISKYLNWYQQKPDGTVKLLIYHTSRLHSGVPSRFSGSGSGTDYSLTISNLEQEDIATYFCQQGNTLPYTFGGGTKLEIT	0.35		0.16 µg/mL	koff (CD19-His): 0.000895 s⁻¹
8A10-hIgG1 (Fc fusion, Secreted scFv-hIgG1Fc fusion from 293 cells, protein A purified; also called 8A10 scFv-hIgG1Fc融合蛋白; not shown: human IgG1 Fc (hIgG1Fc) from vector pGCIgGH1) EVKLQESGPGLVAPSQSLSVTCTVSGVSLPDYGVSWIRQPPRKGPEWLGVIWGSETTYYNSALKSRLTIIKDNSKSQVFLKMNSLQTDDTAIYYCAKHYYYGGSYAMDYWGQGTSVTVSSGGGGSGGGGSGGGGSDIQMTQTTSSLSASLGDRVTISCRASQDISKYLNWYQQKPDGTVKLLIYHTSRLHSGVPSRFSGSGSGTDYSLTISNLEQEDIATYFCQQGKTFPLTFGGGTKLEIT	0.418		0.13 µg/mL	koff (CD19-His): 0.000913 s⁻¹
C21-hIgG1 (Fc fusion, also called 4B10&8A10组合突变; not shown: human IgG1 Fc (hIgG1Fc) from vector pGCIgGH1) EVKLQESGPGLVAPSQSLSVTCTVSGFSLEDYGVSWIRQPPRKGLEWLGVIWGSETTYYNSALKSRLTIIKDNSKSQVFLKMNSLQTDDTAIYYCAKHYYYGGSYAMDYWGQGTSVTVSSGGGGSGGGGSGGGGSDIQMTQTTSSLSASLGDRVTISCRASQDISKYLNWYQQKPDGTVKLLIYHTSRLHSGVPSRFSGSGSGTDYSLTISNLEQEDIATYFCQQGKTFPLTFGGGTKLEIT		0.23 µg/mL	0.09 µg/mL	
